The assay addresses T1, SARS-COV-2 RBD (SARS-COV-2, UniProt P0DTC2 319-539).
T1 construct: also called WT RBD
Description: ELISA, RBD coated. In general terms: In an ELISA, binding on a coated surface is turned into a signal by an enzyme label.

Where a chain is given by its changes, count along the chain named.

B1: C856 (antibody, V domains shown)
VH: QVQLVESGGGVVQPGRSLRLSCAASGFTFSSYGMHWVRQAPGKGLEWVAVISYDGSNKYYADSVKGRFTISRDNSKNTLYLQMSSLRAEDTAVYYCAKQIGEYCSGGSCYQGSLDYWGQGTLVTVSS
VL: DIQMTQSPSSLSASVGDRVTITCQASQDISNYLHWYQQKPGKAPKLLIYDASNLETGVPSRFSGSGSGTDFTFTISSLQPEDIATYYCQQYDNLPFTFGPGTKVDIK
notes: IgG; V domains only
Consider B1, for which the EC50 (as a rule, the concentration needed to bring the measured effect to its halfway point) stood at 2.65 ng/mL.

B2: C843 (antibody, V domains shown)
VH: B1 VH with S31R, G33A, D62T, V64L, F68C, S84N, Y95F, S108N
VL: DIQMTQSPSSLSASVGDRVTITCQASQDISNYLNWYQQKPGKAPKLLIYDASDLETGVPSTFSGSGSGTDFTLTISSLQPEDFATYYCQQYDIVPFTFGPGTKVDIK
notes: IgG; V domains only
Molecule B2 registered an EC50 of 2.4 ng/mL.

B3: C842 (antibody, V domains shown)
VH: QVQLVESGGGVVQPGRSLRLSCAASGFTFSTYAIHWVRQAPGKGLEWVAAISYDGSNKYYSDSVKGRLFISRDNSNNTVYLQMNNLRAEDTAIYYCARDGTIVTLVRGVMGPPFDYWGQGTLVTVSS
VL: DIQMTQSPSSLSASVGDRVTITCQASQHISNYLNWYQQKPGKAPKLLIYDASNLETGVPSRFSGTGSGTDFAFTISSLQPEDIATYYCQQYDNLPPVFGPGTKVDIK
notes: IgG; V domains only
In turn, B3 came in with an EC50 of 3.01 ng/mL.

B4: C854 (antibody, V domains shown)
VH: EVQLVESGGGLIQPGGSLRLSCAASGITVSSNYMNWVRQAPGKGLEWVSVLYAGGSTFYADSVKGRFTISRDDSKNTLYLQMDSLRAEDTAVYYCARDLSSSGGFDYWGQGTLVTVSS
VL: EIVLTQSPGTLSLSPGERATLSCRASQSVSSSYLAWYQQKPGQAPRLLIYGASSRATGIPDRFSGRGSGTDFTLTISRLEPEDFAVYYCQQYGSLYTFGQGTKLEIK
notes: IgG; V domains only
Take B4: the midpoint of the response, the EC50, lay at 2.57 ng/mL.

B5: C857 (antibody, V domains shown)
VH: QVQLQESGPGLVKPSQTLSLTCTVSGGSISSGGYYWSWIRQHPGKGLEWIGYIYYSGSTYYNPSLESRVTISVDTSKNQFSLKLSSVTAADTAVYYCASGELSAFGELFPHDYWGQGTLVTVSS
VL: EIVLTQSPATLSLSPGERATLSCRASQSVSTYLAWYQQKPGQAPRLLIYDASNRATGIPARFSGSGSGTDFTLTISSLEPEDFAVYYCQQRSNWLFTFGPGTKVDIK
notes: IgG; V domains only
B5 yielded an EC50 of 2.01 ng/mL.

B6: C845 (antibody, V domains shown)
VH: QVQLQESGPGLVKPSQTLSLTCTVSGASISSGEYYWSWVRQPPGKGLEWVGYIYYSGSTYYNPSLKSRVTISVDTSKNHFSLKLKSLTAADTAVYFCATGGLSAFGELFPHDKWGQGTLVTVSS
VL: B5 VL with S30G, T31S, Y32D, A51T, E79D, E81A, S92T, T97S
notes: IgG; V domains only
With B6, a half-maximal effect (EC50) was put at 1.5 ng/mL.

B7: C859 (antibody, V domains shown)
VH: QVQLVQSGAELKKPGASVRVSCKASGYTFTDYYIHWVRQAPGQGFEWMGWINPDSGGTNYPQNFQGRVTMTRGTSISTAYVELTRLRFDDTAVYYCARTSSPHSSSTGDLDYWGQGTLVTVS
VL: SYELTQSPSVSVAPGKTARITCGGRDIGSKSVHWYQQRPGQAPVLVISYDNDRPSGIPERFSGSNSGNTATLTISRVEAGDEADYYCQVWDGTGDHPGWVFGGGTRLTVL
notes: IgG; V domains only
Consider B7, for which the EC50 was 2.75 ng/mL.

B8: C849 (antibody, V domains shown)
VH: QVQLVQSGAEVKKPGASVKVSCRASGYTFTDHYIHWVRQAPGQGLEWMGWINPNSGDTNYPQKFQGRVTMARDTSISTAHMELRRLKSDDTAVYYCARTSSPHSSSTGDFDSWGQGTLVTVSS
VL: B7 VL with S7P, R25D, R38K, P39S, S48H, Y49D, N51S, G92F, R106K
notes: IgG; V domains only
On to B8, for which the EC50 was 3.64 ng/mL.

B9: C851 (antibody, V domains shown)
VH: QLQLQESGPGLVKTSETLSLTCTVSGGSISSGNSYWGWIRQPPGKGLEWIGDIYYSGSTFYNPSLKSRLTISVDTSKNQFSLKLTSVTAADTAVYYCARRGGRTPVRFNYGGDVWGQGTTVTVSS
VL: DIQMTQSPSSLSASVGDRVTITCQASQDISRYLNWFQHKPGKAPKLLIYDASNLEAGVPSRFTGSGSGTEFTFTISSLQPEDFAIYFCQQYDSLPLTFGGGTKVEI
notes: IgG; V domains only
With B9, the EC50 is 2.83 ng/mL. This EC50 and that of the molecule before are within 1.5-fold of each other.

B10: C855 (antibody, V domains shown)
VH: QVQLVESGGGVVQPGRSLRLSCAASGFAFSTYGMHWVRQTPGKGLAWVAAISYDGRNTYYGDSVKGRFTITRDNSKNTLYLQLNSLRDEDTALYYCARDATMITLVRGIMGPPFDHWGQGSLVTVSS
VL: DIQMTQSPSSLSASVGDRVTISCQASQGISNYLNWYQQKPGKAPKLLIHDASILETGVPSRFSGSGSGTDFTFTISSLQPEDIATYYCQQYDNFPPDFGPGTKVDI
notes: IgG; V domains only
In the case of B10, the EC50 amounted to 2.73 ng/mL. This EC50 and that of the molecule before are within 1.5-fold of each other.

B11: C850 (antibody, V domains shown)
VH: QVQLQESGPGLVKPSETLSLICSVSGVSVSSRNFFWSWIRQPPGKGLEWIGYMSYGGNTNYNPSLKSRVTISIDTSKNQFSLKLSSVTAADTAVYYCARETYYYDRSGYYSSDGFDYWGQGILVTVSS
VL: EIVLTQSPGTLSLSPGERATLSCRASQSITSSSLAWYQQKRGQPPRLLIYGASSRATGIPDRFSGSGSGTDLTLTISRLEPEDFAVYYCQQYGNSPYTFGQGTKLEIK
notes: IgG; V domains only
Molecule B11 returned an EC50 of 3.7 ng/mL.

B12: C860 (antibody, V domains shown)
VH: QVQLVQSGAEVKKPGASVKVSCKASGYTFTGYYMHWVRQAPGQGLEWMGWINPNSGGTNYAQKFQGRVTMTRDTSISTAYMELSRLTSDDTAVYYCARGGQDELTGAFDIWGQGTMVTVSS
VL: SYELTQPPSVSVAPGKTARITCGGNSIGSKSVHWYQQKPGQAPVLVIYYDSDRPSGIPERFSGSNSGNTATLTISRVEAGDEADFHCQVWDSGWVFGGGTKLTVL
notes: IgG; V domains only
With B12, the EC50 was determined as 2.61 ng/mL.

B13: C852 (antibody, V domains shown)
VH: QVQLVQSGAEVKKPGASVKVSCKASGYIFTGFYMHWVRQAPGQGPEWMGWINPNSGGTNYAQKFQGRVTMTRDTSISTAYMELSRLRSDDTALYYCARGGQDELTGTFDVWGQGTMVTVSS
VL: B12 VL with V12L, R19S, N25D, K38R, V44I, S51G, F85Y, H86Y, S92G
notes: IgG; V domains only
As to B13, a half-maximal response (EC50) required 4.59 ng/mL.

B14: C848 (antibody, V domains shown)
VH: QVQLQESGPGLVKPSQTLSLTCTVSGGSISSGDYYWSWIRQPPGKGLEWIGYIYYTGITYYRPSLKSRVTISVDTSKNQFSLKLSSVTAADTAVFYCARVVRLWPRYFDSWGQGTLVTVSS
VL: QSALTQPPSASGSPGQSVTISCTGTSSDVGTYDYVSWYQQHPGKAPKVIIYEVTKRPSGVPDRFSGSKSGNTASLTVSGLQAEDEAHYYCSTYAGSDNLEFGGGTKLTVL
notes: IgG; V domains only
B14 showed an EC50 of 2.23 ng/mL.

B15: C846 (antibody, V domains shown)
VH: QVQLVESGGGVFQPGRSLRLSCAASGFNFRTYAMHWVRQAPGKGLEWVAVILDDGSGKFYADSVKGRFTVSRDNSKHTLYLQMTSLSAEDTAIYFCARDQGTATTYFDHWGQGTLVTVSS
VL: DIQMTQSPSSLSASVGDRVTITCRASQSIRTFLSWYQQKAGKAPKLLIYTASSLQNGVPSRFSGSGSGTDFTLTISSLQPEDFATYYCQQSYETPPWTFGQGTKVEIK
notes: IgG; V domains only
As for B15, the response was half-maximal at 3.48 ng/mL (EC50).

B16: C863 (antibody, V domains shown)
VH: EVQLLESGGGLVRPGGSLRLSCAASGFIFGSYAMTWVRQAPGKGLEWVSTISGGGTSTDYADSVKGHFTISRDNGKNTLYLQMNSLRAEDTAVYYCVKESDYYMASVNGMDVWGHGTTVTVSS
VL: EIVLTQSPGTLSLSPGERATLSCRARQGVSSTYLAWYQQKPGQAPRLLIYGASSRATGIPDRFSGSGSGADFTLTISRLEPEDFAVYYCQQYGTSPYTFGQGTKLEIK
notes: IgG; V domains only
In the case of B16, it took 3.31 ng/mL to reach a half-maximal effect (EC50).

B17: C864 (antibody, V domains shown)
VH: QVQLVQSGPEVKKPGTSVKVSCKAFQLSFSVSAVQWVRQARGQRLEWIGWIVVGSGNTNYAQKFQERVTITRDMSTSTVYMEVRSLRSEDTAVYYCAAPQCNRTTCYDAFDMWGQGTMVTVSS
VL: EIVLTQSPGTLSLSPGERATLSCRASQSVNSNYLAWYQQKPGQAPRLLIFGPSNRATGIPDRFSGSGSGTDFTLTISRLESEDFAVYYCQQYGSSPWTFGQGTKVEIK
notes: IgG; V domains only
B17 came in with an EC50 of 1.89 ng/mL.

B18: C841 (antibody, V domains shown)
VH: EVQLVESGGGLVQPGGSLRLSCAASGFTFSIFSMNWVRQAPGKGLEWISYISSSSGSRHYADSVKGRFTISRDNAKNSLYLQMNNLRDEDTAMYYCAREAHDGALTGYGDYLNWFDPWGQGVLVTVSS
VL: SYELTQPPSVSVAPGKTARIPCGGDSVGSKSVHWYQQKSGQAPVLVIHSDSDRPSGIPERFSGSNSGNTATLTITGVAAGDEADYYCHVWDTIGDRFYWVFGGGTKLTVL
notes: IgG; V domains only
In turn, B18 yielded an EC50 of 3.15 ng/mL.

B19: C865 (antibody, V domains shown)
VH: EVQLLESGGGLVQPGGSLRLSCVASRFIFSRYALSWVRQAPGKGLEWVSGISGSGHSTHYADSVTGRFTISRDNSKNTVYLQMSSLRAEDTAVYYCAKGPRSNYDYFESWGQGTLVTVSS
VL: DIQLTQSPSSLSASVGDRVTITCRASQGISSALAWYQQRPGKAPRLLIYDASSLDSGVPSRFSGSGSGTDFTLTISSLQSEDFATYYCQQFINNPLTFGGGTKVEIK
notes: IgG; V domains only
B19 registered an EC50 of 2.14 ng/mL.

B20: C839 (antibody, V domains shown)
VH: QVQLQESGPGLVKPLDTLSLTCTVSGASISSYYWSWIRQPAGKGLEWIGLIYSSGSTTYNPSLKSRVTMSVDTSKKQFSLNLSSMTAADTAVYYCARGSALNWKSIGYFDSWGQGTLVTV
VL: DIQMTQSPSSLSASIRDRVTITCQASQDISNYLNWYQQKAGEAPKLLIYDASSLETGVPSRFSGSGSGTEFTLTISSLQPEDIATYYCQQYDHVPLTFGGGTKVEIK
notes: IgG; V domains only
B20 showed an EC50 of 4.38 ng/mL.

B21: C840 (antibody, V domains shown)
VH: QVQLVESGGGVVQPGRSLRLSCEASGFTFTAYAMHWLRQAPGKGLEWVAVILNDGSNKLYADSVKGRFTVSRDNSKNMLYLQVNSLRVDDTAVYYCARDGSVDTLMVTWFDYWGQGTLVTVSS
VL: DIQMTQSPSSLSASVGDRVTITCRASQSVNNYLNWYQQKPGQAPKLLIYAASSLQSGVPLRFSGSGSGTDFALTITSLHTEDFATYYCQQSYNTPPWTFGPGTKVEIK
notes: IgG; V domains only
In turn, B21 came in with an EC50 of 1.36 ng/mL.

B22: C847 (antibody, V domains shown)
VH: QVQLVESGGGVVQPGGSLRLSCGASGFTFSSYAMHWVRQAPGEGLEWVAVILYDGAGKFYADSVKGRFTISRDNSKNTLYLQMNSLRAEDTAVYYCARDYGDYVTHFDYWGQGALVTVSS
VL: B15 VL with R30S, T31S, F32Y, S34N, A40P, N56S, S76T, E93N
notes: IgG; V domains only
Take B22: the EC50 came out at 3.06 ng/mL.

B23: C844 (antibody, V domains shown)
VH: EVQLVESGGGLVKPGGSLRLSCVATGFSFSDAWMNWVRQAPGKGLEWVGRIRSEIADGTTDYAAPVKGRFTISRDDARNTLYLQMNSLEIEDTAVYYCTTGVVVVVSSSPDDAFDVWGQGTMVTVSS
VL: DIQMTQSPSSLSASVGDRVTITCRASQSIGHYLNWYQQKPGKAPKLLIYAASSLQSGVPSRFSGSGSGAGFTLTVNGLQPEDLATYYCQQYYTTPPTFGQGTKVEIK
notes: IgG; V domains only
With B23, the EC50 came to 1.53 ng/mL. Compared with the last molecule, the EC50 is about 2-fold lower.

B24: C853 (antibody, V domains shown)
VH: QVQLQESGPGLVKASQTLSLTCTVSGGSFRSGGYYYNWIRQHPGKGLEWIGYIFYTGVTYYNPSLKSRVSISVDTSKNQLSLNLTSVTAADTAVYYCARGSYSDYNGGWDYWGRGTLVTVS
VL: QSALTQPPSASGSPGQSVTISCIGTSSDVGGYNYVSWYQHHPGKAPKLIIYEVSKRPSGVPDRFSGSKSGNTASLTVSGLQADDEADYYCSSYAGSNNWVFGGGTKLTV
notes: IgG; V domains only
In turn, B24 gave an EC50 of 2.3 ng/mL.

For the origin of these results see patent US20240218057A1 (ROCKEFELLER UNIVERSITY, published 2024).
